Assay results: patent US5766581, “Method for treating mammals with monopegylated proteins that stimulates megakaryocyte growth and differentiation” (Amgen Inc., dated 1998)

B1: human MGDF-2 (amino acids 1-174 of SEQ ID NO: 25) (ligand)
chain: SPAPPACDLRVLSKLLRDSHVLHSRLSQCPEVHPLPTPVLLPAVDFSLGEWKTQMEETKAQDILGAVTLLLEGVMAARGQLGPTCLSSLLGQLSGQVRLLLGALQSLLGTQLPPQGRTTAHKDPNAIFLSFQHLLRGKVRFLMLVGGSTLCVR
B2: human MGDF-3 (amino acids 1-265 of SEQ ID NO: 27) (ligand)
chain: SPAPPACDLRVLSKLLRDSHVLHSRLSQCPEVHPLPTPVLLPAVDFSLGEWKTQMEETKAQDILGAVTLLLEGVMAARGQLGPTCLSSLLGQLSGQVRLLLGALQSLLGTQLPPQGRTTAHKDPNAIFLSFQHLLRGKDFWIVGDKLHCLSQNYWLWASEVAAGIQSQDSWSAEPNLQVPGPNPRIPEQDTRTLEWNSWTLSWTLTQDPRSPGHFLRNIRHRLPATQPPAWIFSFPNPSSYWTVYALPSSTHLAHPCGPAPPPAS

Legend:
[1] = biological target: human Mpl receptor, full length, on cells (human) (UniProt P40238)
[2] = biological target: murine Mpl receptor, full length, expressed on 32D cells (subclone 1A6.1) (murine) (UniProt Q08351)
[3] = biological target: murine Mpl receptor, full length, expressed on 32D cells (subclone 1A6.1) (murine) (UniProt Q08351); remark: listed apart in the source
[4] = biological target: murine Mpl receptor, full length, expressed on 32D cells (subclone 1A6.1) (murine, UniProt Q08351); assay: cell-based or functional assay
[5] = biological target: human Mpl receptor, full length, on cells (human, UniProt P40238); assay: cell-based or functional assay

Molecule	Human Meg assay (units/mg) [1] [units/mg]	1A6.1 assay (units/mg) [2] [units/mg]	1A6.1 cell growth, fraction diluted 1:45000 (cells per well) [3]	U/ml (- mur-MPL-X), 1A6.1 cells [4] [U/ml]	Megakaryocytes per Well (-mur-MPL-X) [5] [megakaryocytes per well]
25 kd canine Mpl ligand purified from aplastic canine plasma	1.4e+10	1.05e+10	6000		
31 kd canine Mpl ligand purified from aplastic canine plasma	5.7e+09	6.52e+09			
B1				12800	100
B2				0	2
